Molecular target: T1, sLe^x-capped PSGL-1 on transfected Chinese hamster ovary cells (PSGL-1 CHO cells) (UniProt Q14242 42-412, sLe^x-capped (sialylated and fucosylated) glycans (so in the source))
T1 construct: whole, on cells; also called sialylated PSGL-1; sLe^x-modified PSGL-1
T1 sequence: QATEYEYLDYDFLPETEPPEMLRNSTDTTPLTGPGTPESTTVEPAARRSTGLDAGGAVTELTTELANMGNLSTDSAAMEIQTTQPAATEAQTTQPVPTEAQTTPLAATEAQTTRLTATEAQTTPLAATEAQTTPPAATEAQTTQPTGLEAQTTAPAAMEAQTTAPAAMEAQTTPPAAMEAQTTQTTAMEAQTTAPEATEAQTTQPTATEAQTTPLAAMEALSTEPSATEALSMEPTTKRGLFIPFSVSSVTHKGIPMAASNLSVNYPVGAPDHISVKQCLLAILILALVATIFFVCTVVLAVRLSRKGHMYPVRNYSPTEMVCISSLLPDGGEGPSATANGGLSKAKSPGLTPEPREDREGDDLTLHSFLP
Experiment: PSGL-1 CHO cells preincubated with GST-OmpA; competitor: Aph organisms (data not shown)

B1: GST-OmpA (N-terminal glutathione-S-transferase-tagged A. phagocytophilum OmpA, excluding the signal sequence) (other)
chain: CGTLLPDSNVGVGRHDLGSHRSVAFAKKVEKVYFDIGKYDLKGPGKKVILELVEQLRQDDSMYLVVIGHADATGTEEYSLALGEKRANAVKQFIIGCDKSLAPRVTTQSRGKAEPEVLVYSTDAQEVEKANAQNRRAVIVVEFAHIPRSGVADMHAPVASSITSENSNASAEGEDMEASEFSSAIAN
notes: also called GST-ApOmpA; GST-tagged Aph OmpA; not shown: glutathione-S-transferase (GST) tag, N-terminal, from the pDest-15 vector
With B1 the “reduction of Aph binding to sLe^x-modified PSGL-1 relative to GST alone” value was about 60%.

— patent US20190117753A1 (VIRGINIA COMMONWEALTH UNIVERSITY, published 2019)
